Experimental data taken from patent US20180155430A1.

Assays:
[1] = target: human PD-1 (Programmed Death-1) (human) (UniProt Q15116); assay: cell-based or functional assay
[2] = target: human PD-L1 (PD-ligand 1) (human) (UniProt Q9NZQ7); assay: cell-based or functional assay
UniProt Q9NZQ7, sequence (Q9NZQ7 19-290 limits assumed): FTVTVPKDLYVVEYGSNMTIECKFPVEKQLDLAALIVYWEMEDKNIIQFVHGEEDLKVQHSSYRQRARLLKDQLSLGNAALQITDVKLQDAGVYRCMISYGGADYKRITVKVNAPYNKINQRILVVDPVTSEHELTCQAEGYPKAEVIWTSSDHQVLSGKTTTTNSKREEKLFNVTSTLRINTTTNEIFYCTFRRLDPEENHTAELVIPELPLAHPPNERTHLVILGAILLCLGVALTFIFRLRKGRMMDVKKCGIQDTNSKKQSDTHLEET

UniProt Q15116, sequence (Q15116 other isoform, or with tags, fused parts or gaps limits assumed): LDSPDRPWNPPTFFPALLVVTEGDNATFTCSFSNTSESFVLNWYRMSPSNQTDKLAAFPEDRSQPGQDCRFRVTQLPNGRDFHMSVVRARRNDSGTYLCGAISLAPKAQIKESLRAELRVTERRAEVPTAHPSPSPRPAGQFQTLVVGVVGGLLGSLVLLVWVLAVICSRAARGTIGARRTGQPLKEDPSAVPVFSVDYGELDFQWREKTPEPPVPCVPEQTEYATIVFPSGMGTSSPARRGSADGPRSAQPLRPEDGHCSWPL

| expansion of HCV-specific CFSE-low tetramer+ CD8+ T cells, 6 days with cognate peptide and IL-2 [2] [fold] | fold increase in B*4201 TL9 tetramer+ CD8+ T cells, 6-day CFSE proliferation assay of human PBMC with TL9 peptide plus antibody (peptide alone: 4.8-fold) [2] [fold] | fold increase in frequency of EBV or CMV-specific CD8 T cells, 6-day CFSE assay, peptide plus antibody against peptide alone [2] [fold] | percentage of B*4201 TL9-specific CD8+ T cells after 6-day stimulation with peptide [2] [%] | Molecule | expansion of HCV-specific CFSE-low tetramer+ CD8+ T cells, 6 days with cognate peptide and IL-2 [1] [fold] |
| --- | --- | --- | --- | --- | --- |
| – | – | – | – | anti-human PD-1 monoclonal antibody EH12 | 4 |
| 4 | 10.3 | < 3.5 | 12.4 | anti-human PD-L1 monoclonal antibody 29E.2A3 (antibody, from another filing, mouse IgG2b, V domains shown) VH: EVQLQQSGPELVKPGASVKMSCKASGYTFTSYVMHWVKQKPGQGLEWIGYVNPFNDGTKYNEMFKGKATLTSDKSSSTAYMELSSLTSEDSAVYYCARQAWGYPWGQGTLVTVSA VL: DIVLTQSPASLAVSLGQRATISCRATESVEYYGTSLVQWYQQKPGQPPKLLIYAASSVDSGVPARFSGSGSGTDFSLTIHPVEEDDIAMYFCQQSRRVPYTFGGGTKLEIK | – |
